Assays:
AncSZ = experiment: phosphorylation enrichment, bacterial display (enrichment ratio); higher = better substrate or ligand; peptides without Tyr show the background
EPHB1 = EPHB1 (UniProt P54762); experiment: as above
EPHB2 = EPHB2 (UniProt P29323); experiment: as above
FGFR1 = FGFR1 (UniProt P11362); experiment: as above
FGFR3 = FGFR3 (UniProt P22607); experiment: as above
Fer (mouse) = experiment: as above
Fes = Fes (UniProt P07332); experiment: as above
Fyn = Fyn (UniProt P06241); experiment: as above
Hck = Hck (UniProt P08631); experiment: as above
Jak2 = Jak2 (UniProt O60674); experiment: as above
MERTK = MERTK (UniProt Q12866); experiment: as above
c-Abl (mouse) = experiment: as above
c-Src = experiment: as above
Grb2 SH2 = Grb2 SH2 (UniProt P62993); experiment: SH2 binding enrichment of the phosphorylated peptide, bacterial display (enrichment ratio); higher = better substrate or ligand; peptides without Tyr show the background
SHP2-C SH2 = experiment: as above
c-Src SH2 = experiment: as above
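Wherever SH2 binding enrichment of the phosphorylated peptide, bacterial display is given: peptide library displayed on the E. coli surface as eCPX fusions, selected cells deep-sequenced, score is each peptide's frequency after selection divided by its frequency in the input.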
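Wherever phosphorylation enrichment, bacterial display is given: 11-residue human phosphosite peptides and single-mutation variants displayed on the E. coli surface, counted by deep sequencing, each peptide's frequency after selection divided by its frequency in the unselected input library; frequency after pTyr selection over input frequency; kinase dosed for 20-30% of maximal phosphorylation in three min.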

Sequence of FGFR3 (P22607 whole entry, looked up): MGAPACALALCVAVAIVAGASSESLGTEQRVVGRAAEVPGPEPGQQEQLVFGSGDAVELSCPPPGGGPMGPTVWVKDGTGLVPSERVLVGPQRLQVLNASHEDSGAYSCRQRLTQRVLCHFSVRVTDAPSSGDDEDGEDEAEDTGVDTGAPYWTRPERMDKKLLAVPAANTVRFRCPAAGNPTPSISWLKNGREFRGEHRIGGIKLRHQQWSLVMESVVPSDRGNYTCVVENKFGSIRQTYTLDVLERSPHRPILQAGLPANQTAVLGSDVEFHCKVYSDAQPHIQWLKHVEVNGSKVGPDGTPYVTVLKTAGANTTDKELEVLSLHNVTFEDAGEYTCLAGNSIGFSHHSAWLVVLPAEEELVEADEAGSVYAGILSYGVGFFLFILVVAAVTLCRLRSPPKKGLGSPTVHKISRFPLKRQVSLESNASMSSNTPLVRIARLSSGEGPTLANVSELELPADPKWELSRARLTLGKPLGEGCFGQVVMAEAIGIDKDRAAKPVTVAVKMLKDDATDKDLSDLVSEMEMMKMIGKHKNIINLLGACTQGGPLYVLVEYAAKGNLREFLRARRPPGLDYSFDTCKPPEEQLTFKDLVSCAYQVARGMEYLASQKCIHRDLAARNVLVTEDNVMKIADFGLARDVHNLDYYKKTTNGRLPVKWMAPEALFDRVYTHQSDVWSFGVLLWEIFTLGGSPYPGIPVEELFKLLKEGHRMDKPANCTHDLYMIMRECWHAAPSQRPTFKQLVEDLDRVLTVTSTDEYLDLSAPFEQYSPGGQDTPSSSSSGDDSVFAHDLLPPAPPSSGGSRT
Sequence of Jak2 (O60674 whole entry, looked up): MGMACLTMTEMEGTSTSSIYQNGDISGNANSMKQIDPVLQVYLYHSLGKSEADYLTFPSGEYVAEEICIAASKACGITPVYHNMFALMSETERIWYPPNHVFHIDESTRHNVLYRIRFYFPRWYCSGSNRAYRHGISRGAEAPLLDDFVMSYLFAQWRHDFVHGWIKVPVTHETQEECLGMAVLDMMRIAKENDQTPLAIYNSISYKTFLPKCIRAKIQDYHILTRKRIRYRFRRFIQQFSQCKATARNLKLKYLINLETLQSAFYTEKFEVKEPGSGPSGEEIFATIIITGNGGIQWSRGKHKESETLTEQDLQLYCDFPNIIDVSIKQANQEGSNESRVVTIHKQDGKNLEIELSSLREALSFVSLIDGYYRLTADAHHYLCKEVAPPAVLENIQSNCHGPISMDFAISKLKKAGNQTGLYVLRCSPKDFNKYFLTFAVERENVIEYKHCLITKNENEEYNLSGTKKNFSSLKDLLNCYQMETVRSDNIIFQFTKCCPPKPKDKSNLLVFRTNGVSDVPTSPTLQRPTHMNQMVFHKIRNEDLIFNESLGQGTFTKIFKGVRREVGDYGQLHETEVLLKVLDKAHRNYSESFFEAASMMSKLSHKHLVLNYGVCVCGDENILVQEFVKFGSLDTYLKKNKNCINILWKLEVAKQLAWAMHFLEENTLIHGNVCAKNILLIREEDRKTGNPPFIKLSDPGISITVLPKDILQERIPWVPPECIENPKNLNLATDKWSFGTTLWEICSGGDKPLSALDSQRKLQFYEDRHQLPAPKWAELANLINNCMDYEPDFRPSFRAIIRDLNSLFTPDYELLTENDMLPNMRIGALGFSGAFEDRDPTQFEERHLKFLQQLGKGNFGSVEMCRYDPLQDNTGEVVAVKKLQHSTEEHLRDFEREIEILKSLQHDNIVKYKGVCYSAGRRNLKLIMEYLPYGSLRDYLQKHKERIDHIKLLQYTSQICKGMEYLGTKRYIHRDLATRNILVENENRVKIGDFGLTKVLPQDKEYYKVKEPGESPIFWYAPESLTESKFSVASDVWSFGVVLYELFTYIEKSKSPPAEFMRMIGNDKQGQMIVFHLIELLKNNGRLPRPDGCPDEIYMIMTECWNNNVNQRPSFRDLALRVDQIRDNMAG
Sequence of FGFR1 (P11362 whole entry, looked up): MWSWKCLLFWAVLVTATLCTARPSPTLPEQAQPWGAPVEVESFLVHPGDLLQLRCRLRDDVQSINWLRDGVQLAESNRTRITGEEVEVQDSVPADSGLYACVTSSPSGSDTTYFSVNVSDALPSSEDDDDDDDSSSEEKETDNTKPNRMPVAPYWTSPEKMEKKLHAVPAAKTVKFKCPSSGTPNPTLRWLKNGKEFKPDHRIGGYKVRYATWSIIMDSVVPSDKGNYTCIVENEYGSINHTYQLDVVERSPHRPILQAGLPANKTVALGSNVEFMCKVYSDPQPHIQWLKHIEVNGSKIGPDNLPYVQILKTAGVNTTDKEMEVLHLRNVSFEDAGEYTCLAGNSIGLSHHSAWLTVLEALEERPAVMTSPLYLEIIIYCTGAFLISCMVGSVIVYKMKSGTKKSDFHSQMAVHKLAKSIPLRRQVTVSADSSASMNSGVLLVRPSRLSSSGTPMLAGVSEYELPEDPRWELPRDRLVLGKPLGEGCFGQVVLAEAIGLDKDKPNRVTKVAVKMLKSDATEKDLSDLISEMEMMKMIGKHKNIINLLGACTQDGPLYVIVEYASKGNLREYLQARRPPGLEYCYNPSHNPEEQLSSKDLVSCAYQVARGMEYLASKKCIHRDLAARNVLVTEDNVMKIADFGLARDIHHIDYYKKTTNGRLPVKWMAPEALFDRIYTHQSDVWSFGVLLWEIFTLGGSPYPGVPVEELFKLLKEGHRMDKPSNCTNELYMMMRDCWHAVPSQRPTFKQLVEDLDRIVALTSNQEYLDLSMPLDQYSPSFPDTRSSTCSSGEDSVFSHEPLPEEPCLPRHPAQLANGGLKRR
Sequence of Fes (P07332 whole entry, looked up): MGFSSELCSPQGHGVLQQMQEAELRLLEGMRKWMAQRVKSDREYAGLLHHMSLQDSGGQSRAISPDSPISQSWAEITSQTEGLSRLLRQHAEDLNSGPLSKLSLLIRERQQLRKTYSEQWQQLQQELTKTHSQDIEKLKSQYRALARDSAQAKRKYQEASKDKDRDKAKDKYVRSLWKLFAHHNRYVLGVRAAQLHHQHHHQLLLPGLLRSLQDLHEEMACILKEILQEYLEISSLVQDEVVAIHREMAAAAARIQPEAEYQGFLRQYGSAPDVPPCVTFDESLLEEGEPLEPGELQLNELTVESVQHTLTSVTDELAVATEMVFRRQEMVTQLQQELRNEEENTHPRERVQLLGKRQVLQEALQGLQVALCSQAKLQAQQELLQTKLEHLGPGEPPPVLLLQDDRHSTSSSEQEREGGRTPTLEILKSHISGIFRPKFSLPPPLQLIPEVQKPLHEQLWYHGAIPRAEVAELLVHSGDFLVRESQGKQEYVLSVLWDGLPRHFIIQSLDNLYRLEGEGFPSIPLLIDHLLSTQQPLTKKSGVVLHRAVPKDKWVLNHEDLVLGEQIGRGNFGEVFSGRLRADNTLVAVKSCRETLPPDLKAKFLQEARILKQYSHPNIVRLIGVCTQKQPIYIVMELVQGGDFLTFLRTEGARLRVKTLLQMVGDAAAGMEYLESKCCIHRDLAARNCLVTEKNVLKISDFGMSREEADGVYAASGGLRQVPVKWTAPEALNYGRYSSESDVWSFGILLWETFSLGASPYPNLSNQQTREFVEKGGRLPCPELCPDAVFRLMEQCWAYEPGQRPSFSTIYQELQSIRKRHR
Sequence of Fyn (P06241 whole entry, looked up): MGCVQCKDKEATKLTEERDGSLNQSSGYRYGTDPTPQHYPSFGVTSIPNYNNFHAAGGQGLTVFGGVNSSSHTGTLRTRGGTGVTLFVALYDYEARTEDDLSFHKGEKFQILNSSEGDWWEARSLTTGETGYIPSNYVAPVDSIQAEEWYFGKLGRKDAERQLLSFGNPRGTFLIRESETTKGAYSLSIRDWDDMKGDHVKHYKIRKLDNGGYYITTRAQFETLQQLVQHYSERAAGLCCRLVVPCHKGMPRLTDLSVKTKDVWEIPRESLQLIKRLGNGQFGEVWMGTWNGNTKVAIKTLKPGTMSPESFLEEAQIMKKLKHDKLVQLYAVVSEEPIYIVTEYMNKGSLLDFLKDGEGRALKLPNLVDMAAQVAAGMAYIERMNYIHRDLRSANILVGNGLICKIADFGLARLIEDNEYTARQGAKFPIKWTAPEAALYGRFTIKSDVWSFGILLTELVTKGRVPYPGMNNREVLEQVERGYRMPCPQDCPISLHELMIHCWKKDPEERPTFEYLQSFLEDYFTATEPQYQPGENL
Sequence of Hck (P08631 whole entry, looked up): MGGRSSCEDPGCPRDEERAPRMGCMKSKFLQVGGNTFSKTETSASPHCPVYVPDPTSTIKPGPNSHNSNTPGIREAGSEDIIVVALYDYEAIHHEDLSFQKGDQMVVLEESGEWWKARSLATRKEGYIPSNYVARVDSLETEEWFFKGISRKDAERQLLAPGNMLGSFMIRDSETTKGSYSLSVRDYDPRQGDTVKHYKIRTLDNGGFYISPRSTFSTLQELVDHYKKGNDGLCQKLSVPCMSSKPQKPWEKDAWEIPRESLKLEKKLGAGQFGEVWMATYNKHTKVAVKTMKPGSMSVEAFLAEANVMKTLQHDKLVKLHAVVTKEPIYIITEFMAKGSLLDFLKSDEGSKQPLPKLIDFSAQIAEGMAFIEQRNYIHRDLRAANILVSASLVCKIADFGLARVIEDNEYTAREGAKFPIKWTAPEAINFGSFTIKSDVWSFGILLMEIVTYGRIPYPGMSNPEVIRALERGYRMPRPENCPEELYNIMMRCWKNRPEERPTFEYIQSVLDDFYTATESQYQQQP
Sequence of Grb2 SH2 (P62993 whole entry, looked up): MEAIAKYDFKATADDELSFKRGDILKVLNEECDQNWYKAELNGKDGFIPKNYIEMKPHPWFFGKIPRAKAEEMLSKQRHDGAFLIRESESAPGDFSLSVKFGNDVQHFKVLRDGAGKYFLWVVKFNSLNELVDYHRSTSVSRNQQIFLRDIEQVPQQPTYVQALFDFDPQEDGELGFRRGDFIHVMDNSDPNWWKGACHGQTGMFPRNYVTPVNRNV

FADGVYQALEE [DUOX2_Y70_YF]
phosphorylation enrichment (AncSZ): 1.49
phosphorylation enrichment (EPHB1): 1.97
phosphorylation enrichment (EPHB2): 1.5
phosphorylation enrichment (FGFR1): 0.696
phosphorylation enrichment (FGFR3): 0.666
phosphorylation enrichment (Fer (mouse)): 1.1
phosphorylation enrichment (Fes): 1.3
phosphorylation enrichment (Fyn): 3.65
phosphorylation enrichment (Hck): 3.3
phosphorylation enrichment (Jak2): 0.979
phosphorylation enrichment (MERTK): 1.38
phosphorylation enrichment (c-Abl (mouse)): 0.749
phosphorylation enrichment (c-Src): 3.81
SH2 binding enrichment (Grb2 SH2): 1.15
SH2 binding enrichment (SHP2-C SH2): 0.882
SH2 binding enrichment (c-Src SH2): 0.75

KDAGDYKYKAK [LRIT3_Y326_C328Y]
phosphorylation enrichment (AncSZ): 0.398
phosphorylation enrichment (EPHB1): 0.353
phosphorylation enrichment (EPHB2): 0.366
phosphorylation enrichment (FGFR1): 0.337
phosphorylation enrichment (FGFR3): 0.387
phosphorylation enrichment (Fer (mouse)): 0.256
phosphorylation enrichment (Fes): 0.604
phosphorylation enrichment (Fyn): 0.308
phosphorylation enrichment (Hck): 0.346
phosphorylation enrichment (Jak2): 0.519
phosphorylation enrichment (MERTK): 0.32
phosphorylation enrichment (c-Abl (mouse)): 0.571
phosphorylation enrichment (c-Src): 0.319
SH2 binding enrichment (Grb2 SH2): 0.68
SH2 binding enrichment (SHP2-C SH2): 0.515
SH2 binding enrichment (c-Src SH2): 0.415

IFGVSYDEFRF [CFTR_Y512_YF]
phosphorylation enrichment (AncSZ): 1.07
phosphorylation enrichment (EPHB1): 0.456
phosphorylation enrichment (EPHB2): 0.524
phosphorylation enrichment (FGFR1): 0.5
phosphorylation enrichment (FGFR3): 0.609
phosphorylation enrichment (Fer (mouse)): 1.52
phosphorylation enrichment (Fes): 0.982
phosphorylation enrichment (Fyn): 0.673
phosphorylation enrichment (Hck): 0.93
phosphorylation enrichment (Jak2): 1.09
phosphorylation enrichment (MERTK): 0.671
phosphorylation enrichment (c-Abl (mouse)): 0.678
phosphorylation enrichment (c-Src): 2.32
SH2 binding enrichment (Grb2 SH2): 0.991
SH2 binding enrichment (SHP2-C SH2): 0.684
SH2 binding enrichment (c-Src SH2): 0.897

DKANRYFSPNF [PTEN_Y336]
phosphorylation enrichment (AncSZ): 0.583
phosphorylation enrichment (EPHB1): 0.296
phosphorylation enrichment (EPHB2): 0.301
phosphorylation enrichment (FGFR1): 0.397
phosphorylation enrichment (FGFR3): 0.461
phosphorylation enrichment (Fer (mouse)): 0.375
phosphorylation enrichment (Fes): 0.521
phosphorylation enrichment (Fyn): 0.323
phosphorylation enrichment (Hck): 0.402
phosphorylation enrichment (Jak2): 0.488
phosphorylation enrichment (MERTK): 0.374
phosphorylation enrichment (c-Abl (mouse)): 0.438
phosphorylation enrichment (c-Src): 0.362
SH2 binding enrichment (Grb2 SH2): 1.05
SH2 binding enrichment (SHP2-C SH2): 1.16
SH2 binding enrichment (c-Src SH2): 0.587

FTNRSYDLDFD [MYC_Y12_N11S_YF]
phosphorylation enrichment (AncSZ): 0.978
phosphorylation enrichment (EPHB1): 0.505
phosphorylation enrichment (EPHB2): 0.58
phosphorylation enrichment (FGFR1): 0.685
phosphorylation enrichment (FGFR3): 0.708
phosphorylation enrichment (Fer (mouse)): 0.476
phosphorylation enrichment (Fes): 1.13
phosphorylation enrichment (Fyn): 0.55
phosphorylation enrichment (Hck): 0.64
phosphorylation enrichment (Jak2): 0.922
phosphorylation enrichment (MERTK): 0.422
phosphorylation enrichment (c-Abl (mouse)): 0.77
phosphorylation enrichment (c-Src): 0.499
SH2 binding enrichment (Grb2 SH2): 0.756
SH2 binding enrichment (SHP2-C SH2): 0.723
SH2 binding enrichment (c-Src SH2): 2.61

IDQDKYAVHFI [FLNA_Y2388_R2391H]
phosphorylation enrichment (AncSZ): 0.886
phosphorylation enrichment (EPHB1): 0.483
phosphorylation enrichment (EPHB2): 0.547
phosphorylation enrichment (FGFR1): 0.468
phosphorylation enrichment (FGFR3): 0.61
phosphorylation enrichment (Fer (mouse)): 0.625
phosphorylation enrichment (Fes): 0.945
phosphorylation enrichment (Fyn): 0.396
phosphorylation enrichment (Hck): 0.467
phosphorylation enrichment (Jak2): 0.801
phosphorylation enrichment (MERTK): 0.388
phosphorylation enrichment (c-Abl (mouse)): 0.734
phosphorylation enrichment (c-Src): 0.433
SH2 binding enrichment (Grb2 SH2): 0.711
SH2 binding enrichment (SHP2-C SH2): 0.607
SH2 binding enrichment (c-Src SH2): 0.491

SDQRRYSLIDR [CLIP2_Y972]
phosphorylation enrichment (AncSZ): 0.508
phosphorylation enrichment (EPHB1): 0.327
phosphorylation enrichment (EPHB2): 0.444
phosphorylation enrichment (FGFR1): 0.356
phosphorylation enrichment (FGFR3): 0.421
phosphorylation enrichment (Fer (mouse)): 0.412
phosphorylation enrichment (Fes): 0.558
phosphorylation enrichment (Fyn): 0.394
phosphorylation enrichment (Hck): 0.366
phosphorylation enrichment (Jak2): 0.479
phosphorylation enrichment (MERTK): 0.419
phosphorylation enrichment (c-Abl (mouse)): 0.467
phosphorylation enrichment (c-Src): 0.358
SH2 binding enrichment (Grb2 SH2): 0.833
SH2 binding enrichment (SHP2-C SH2): 0.861
SH2 binding enrichment (c-Src SH2): 3.35

LLINKYGLSDH [SCP2_Y151_A155D]
phosphorylation enrichment (AncSZ): 1.08
phosphorylation enrichment (EPHB1): 0.646
phosphorylation enrichment (EPHB2): 0.62
phosphorylation enrichment (FGFR1): 0.546
phosphorylation enrichment (FGFR3): 0.849
phosphorylation enrichment (Fer (mouse)): 0.709
phosphorylation enrichment (Fes): 1.45
phosphorylation enrichment (Fyn): 0.678
phosphorylation enrichment (Hck): 0.826
phosphorylation enrichment (Jak2): 1.19
phosphorylation enrichment (MERTK): 0.645
phosphorylation enrichment (c-Abl (mouse)): 0.794
phosphorylation enrichment (c-Src): 0.712
SH2 binding enrichment (Grb2 SH2): 0.939
SH2 binding enrichment (SHP2-C SH2): 1.11
SH2 binding enrichment (c-Src SH2): 0.44

NHRNQYQALKP [CLSPN_Y887]
phosphorylation enrichment (AncSZ): 0.739
phosphorylation enrichment (EPHB1): 0.375
phosphorylation enrichment (EPHB2): 0.377
phosphorylation enrichment (FGFR1): 0.351
phosphorylation enrichment (FGFR3): 0.438
phosphorylation enrichment (Fer (mouse)): 0.356
phosphorylation enrichment (Fes): 0.534
phosphorylation enrichment (Fyn): 0.335
phosphorylation enrichment (Hck): 0.504
phosphorylation enrichment (Jak2): 0.463
phosphorylation enrichment (MERTK): 0.531
phosphorylation enrichment (c-Abl (mouse)): 0.476
phosphorylation enrichment (c-Src): 0.404
SH2 binding enrichment (Grb2 SH2): 1.06
SH2 binding enrichment (SHP2-C SH2): 1.05
SH2 binding enrichment (c-Src SH2): 0.915

DLDPNYVLSSR [CKM_Y125]
phosphorylation enrichment (AncSZ): 1.17
phosphorylation enrichment (EPHB1): 0.523
phosphorylation enrichment (EPHB2): 0.636
phosphorylation enrichment (FGFR1): 0.465
phosphorylation enrichment (FGFR3): 0.714
phosphorylation enrichment (Fer (mouse)): 0.394
phosphorylation enrichment (Fes): 1.01
phosphorylation enrichment (Fyn): 0.416
phosphorylation enrichment (Hck): 0.473
phosphorylation enrichment (Jak2): 0.759
phosphorylation enrichment (MERTK): 0.464
phosphorylation enrichment (c-Abl (mouse)): 0.528
phosphorylation enrichment (c-Src): 0.534
SH2 binding enrichment (Grb2 SH2): 0.765
SH2 binding enrichment (SHP2-C SH2): 0.75
SH2 binding enrichment (c-Src SH2): 0.528

RQSHNYLGGFA [SYK_Y47_R45H]
phosphorylation enrichment (AncSZ): 0.686
phosphorylation enrichment (EPHB1): 0.427
phosphorylation enrichment (EPHB2): 0.537
phosphorylation enrichment (FGFR1): 0.501
phosphorylation enrichment (FGFR3): 0.558
phosphorylation enrichment (Fer (mouse)): 0.387
phosphorylation enrichment (Fes): 0.65
phosphorylation enrichment (Fyn): 0.464
phosphorylation enrichment (Hck): 0.599
phosphorylation enrichment (Jak2): 0.523
phosphorylation enrichment (MERTK): 0.414
phosphorylation enrichment (c-Abl (mouse)): 0.817
phosphorylation enrichment (c-Src): 0.394
SH2 binding enrichment (Grb2 SH2): 0.901
SH2 binding enrichment (SHP2-C SH2): 1.13
SH2 binding enrichment (c-Src SH2): 0.433

SYCYRYRCAPR [SUMF1_Y344_A348P]
phosphorylation enrichment (AncSZ): 0.644
phosphorylation enrichment (EPHB1): 0.441
phosphorylation enrichment (EPHB2): 0.418
phosphorylation enrichment (FGFR1): 0.511
phosphorylation enrichment (FGFR3): 0.716
phosphorylation enrichment (Fer (mouse)): 0.528
phosphorylation enrichment (Fes): 0.572
phosphorylation enrichment (Fyn): 0.436
phosphorylation enrichment (Hck): 0.43
phosphorylation enrichment (Jak2): 0.459
phosphorylation enrichment (MERTK): 0.458
phosphorylation enrichment (c-Abl (mouse)): 0.493
phosphorylation enrichment (c-Src): 0.488
SH2 binding enrichment (Grb2 SH2): 0.625
SH2 binding enrichment (SHP2-C SH2): 0.63
SH2 binding enrichment (c-Src SH2): 0.434

TLERHYKELQA [SPTBN2_Y834_E835K]
phosphorylation enrichment (AncSZ): 0.713
phosphorylation enrichment (EPHB1): 0.363
phosphorylation enrichment (EPHB2): 0.546
phosphorylation enrichment (FGFR1): 0.449
phosphorylation enrichment (FGFR3): 0.509
phosphorylation enrichment (Fer (mouse)): 0.415
phosphorylation enrichment (Fes): 0.787
phosphorylation enrichment (Fyn): 0.446
phosphorylation enrichment (Hck): 0.375
phosphorylation enrichment (Jak2): 0.704
phosphorylation enrichment (MERTK): 0.571
phosphorylation enrichment (c-Abl (mouse)): 0.612
phosphorylation enrichment (c-Src): 0.472
SH2 binding enrichment (Grb2 SH2): 0.773
SH2 binding enrichment (SHP2-C SH2): 0.593
SH2 binding enrichment (c-Src SH2): 0.493

DNEALYDICFC [TUBB3_Y208_R213C]
phosphorylation enrichment (AncSZ): 6.01
phosphorylation enrichment (EPHB1): 4.22
phosphorylation enrichment (EPHB2): 5.33
phosphorylation enrichment (FGFR1): 0.748
phosphorylation enrichment (FGFR3): 0.992
phosphorylation enrichment (Fer (mouse)): 12.5
phosphorylation enrichment (Fes): 1.73
phosphorylation enrichment (Fyn): 7.33
phosphorylation enrichment (Hck): 5.92
phosphorylation enrichment (Jak2): 1.46
phosphorylation enrichment (MERTK): 8.05
phosphorylation enrichment (c-Abl (mouse)): 2.07
phosphorylation enrichment (c-Src): 6.25
SH2 binding enrichment (Grb2 SH2): 0.865
SH2 binding enrichment (SHP2-C SH2): 0.8
SH2 binding enrichment (c-Src SH2): 0.714
